Reference: patent US10800847

Experiments:
[1] = biological target: HLA-B*3701 (B37) single antigen on Luminex beads (human); assay: Luminex single antigen, regular beads (#7), IVIg 1:4
[2] = biological target: HLA-B*4403 (B44) single antigen on Luminex beads (human); assay: as above
[3] = biological target: HLA-B*4501 (B45) single antigen on Luminex beads (human); assay: as above
[4] = biological target: HLA-B*4201 (B42) single antigen on Luminex beads (human); assay: as above
[5] = biological target: HLA-B*2708 (B27) single antigen on Luminex beads (human); assay: as above
[6] = biological target: HLA-B*4601 (B46) single antigen on Luminex beads (human); assay: as above
[7] = biological target: HLA-B*4101 (B41) single antigen on Luminex beads (human); assay: as above
[8] = biological target: HLA-B*3801 (B38) single antigen on Luminex beads (human); assay: as above
[9] = biological target: HLA-B*4701 (B47) single antigen on Luminex beads (human); assay: as above
[10] = biological target: HLA-B*3501 (B35) single antigen on Luminex beads (human); assay: as above
[11] = biological target: HLA-B*4001 (B60) single antigen on Luminex beads (human); assay: as above
[12] = biological target: HLA-B*3901 (B39) single antigen on Luminex beads (human); assay: as above
[13] = biological target: HLA-B*4402 (B44) single antigen on Luminex beads (human); assay: as above
[14] = biological target: HLA-B*4006 (B61) single antigen on Luminex beads (human); assay: as above
[15] = biological target: HLA-B*3701 (B37) single antigen on Luminex beads (human); assay: Luminex single antigen, iBead vs regular bead, IVIg 1:4
[16] = biological target: HLA-B*4403 (B44) single antigen on Luminex beads (human); assay: as above
[17] = biological target: HLA-B*2708 (B27) single antigen on Luminex beads (human); assay: as above
[18] = biological target: HLA-B*4601 (B46) single antigen on Luminex beads (human); assay: as above
[19] = biological target: HLA-B*4101 (B41) single antigen on Luminex beads (human); assay: as above
[20] = biological target: HLA-B*3801 (B38) single antigen on Luminex beads (human); assay: as above
[21] = biological target: HLA-B*4701 (B47) single antigen on Luminex beads (human); assay: as above
[22] = biological target: HLA-B*3501 (B35) single antigen on Luminex beads (human); assay: as above
[23] = biological target: HLA-B*4001 (B60) single antigen on Luminex beads (human); assay: as above
[24] = biological target: HLA-B*2705 (B27) single antigen on Luminex beads (human); assay: as above
[25] = biological target: HLA-B*3901 (B39) single antigen on Luminex beads (human); assay: as above
[26] = biological target: HLA-B*4002 (B61) single antigen on Luminex beads (human); assay: as above
[27] = biological target: HLA-B*4402 (B44) single antigen on Luminex beads (human); assay: as above
[28] = biological target: HLA-B*4006 (B61) single antigen on Luminex beads (human); assay: as above
[29] = biological target: Albumin on negative control beads (serum albumin, HSA/BSA) (human or bovine); assay: Luminex single antigen beads, regular beads (#7), 1:4
[30] = biological target: HLA-A*0301 (A3) on single antigen beads (human) (UniProt P04439); assay: as above
[31] = biological target: Albumin on negative control beads (serum albumin, HSA/BSA) (human or bovine); assay: Luminex, iBead MFI against regular bead MFI, 1:4
[32] = biological target: HLA-B*3701 (B37) single antigen on Luminex beads (human); assay: Luminex single antigen, iBeads (#6), IVIg 1:4
[33] = biological target: HLA-B*4403 (B44) single antigen on Luminex beads (human); assay: Luminex single antigen, iBeads (#6), IVIg 1:4
[34] = biological target: HLA-B*4501 (B45) single antigen on Luminex beads (human); assay: Luminex single antigen, iBeads (#6), IVIg 1:4
[35] = biological target: HLA-B*4201 (B42) single antigen on Luminex beads (human); assay: Luminex single antigen, iBeads (#6), IVIg 1:4
[36] = biological target: HLA-B*2708 (B27) single antigen on Luminex beads (human); assay: Luminex single antigen, iBeads (#6), IVIg 1:4
[37] = biological target: HLA-B*4601 (B46) single antigen on Luminex beads (human); assay: Luminex single antigen, iBeads (#6), IVIg 1:4
[38] = biological target: HLA-B*4101 (B41) single antigen on Luminex beads (human); assay: Luminex single antigen, iBeads (#6), IVIg 1:4
[39] = biological target: HLA-B*3801 (B38) single antigen on Luminex beads (human); assay: Luminex single antigen, iBeads (#6), IVIg 1:4
[40] = biological target: HLA-B*4701 (B47) single antigen on Luminex beads (human); assay: Luminex single antigen, iBeads (#6), IVIg 1:4
[41] = biological target: HLA-B*3501 (B35) single antigen on Luminex beads (human); assay: Luminex single antigen, iBeads (#6), IVIg 1:4
[42] = biological target: HLA-B*4001 (B60) single antigen on Luminex beads (human); assay: Luminex single antigen, iBeads (#6), IVIg 1:4
[43] = biological target: HLA-B*2705 (B27) single antigen on Luminex beads (human); assay: Luminex single antigen, iBeads (#6), IVIg 1:4
[44] = biological target: HLA-B*3901 (B39) single antigen on Luminex beads (human); assay: Luminex single antigen, iBeads (#6), IVIg 1:4
[45] = biological target: HLA-B*4002 (B61) single antigen on Luminex beads (human); assay: Luminex single antigen, iBeads (#6), IVIg 1:4
[46] = biological target: HLA-B*4402 (B44) single antigen on Luminex beads (human); assay: Luminex single antigen, iBeads (#6), IVIg 1:4
[47] = biological target: HLA-B*4006 (B61) single antigen on Luminex beads (human); assay: Luminex single antigen, iBeads (#6), IVIg 1:4

Substance “Sandoglobulin (IVIg, Novartis, Basel, Switzerland) (antibody)” has an MFI [1] of 1100 MFI, an MFI [2] of 284 MFI and an MFI [3] of 272 MFI. It also gave an MFI [4] of 0 MFI, an MFI [5] of 13 MFI and an MFI [6] of 537 MFI. It also gave an MFI [7] of 32 MFI, an MFI [8] of 254 MFI and an MFI [9] of 355 MFI. For the same substance, the MFI [10] was 243 MFI, the MFI [11] was 237 MFI and the MFI [12] was 0 MFI. For the same substance, the MFI [13] was 683 MFI, the MFI [14] was 765 MFI and the Difference % (iBead against regular bead MFI) [15] was -33%. The Difference % (iBead against regular bead MFI) [16] was 45%, the Difference % (iBead against regular bead MFI) [17] was 2220% and the Difference % (iBead against regular bead MFI) [18] was -12%. For the same substance, the Difference % (iBead against regular bead MFI) [19] was 469%, the Difference % (iBead against regular bead MFI) [20] was -2% and the Difference % (iBead against regular bead MFI) [21] was 85%. The Difference % (iBead against regular bead MFI) [22] was 45%, the Difference % (iBead against regular bead MFI) [23] was 73% and the Difference % (iBead against regular bead MFI) [24] was 167%. The Difference % (iBead against regular bead MFI) [25] was 0%, the Difference % (iBead against regular bead MFI) [26] was 81% and the Difference % (iBead against regular bead MFI) [27] was -33%. It also gave a Difference % (iBead against regular bead MFI) [28] of -53%, an MFI [29] of 1200 MFI and an MFI [30] of 2 MFI. It also gave a Difference % (iBead against regular bead) [31] of -44%, an MFI [32] of 740 MFI and an MFI [33] of 413 MFI. For the same substance, the MFI [34] was 612 MFI, the MFI [35] was 86 MFI and the MFI [36] was 302 MFI. It also gave an MFI [37] of 473 MFI, an MFI [38] of 182 MFI and an MFI [39] of 248 MFI. It also gave an MFI [40] of 655 MFI, an MFI [41] of 352 MFI and an MFI [42] of 409 MFI. It also gave an MFI [43] of 377 MFI, an MFI [44] of 0 MFI and an MFI [45] of 242 MFI. For the same substance, the MFI [46] was 461 MFI and the MFI [47] was 359 MFI.
